Patent US20220389400

Biological target: amyloid β (UniProt P05067)
UniProt P05067, sequence (P05067 whole entry, looked up): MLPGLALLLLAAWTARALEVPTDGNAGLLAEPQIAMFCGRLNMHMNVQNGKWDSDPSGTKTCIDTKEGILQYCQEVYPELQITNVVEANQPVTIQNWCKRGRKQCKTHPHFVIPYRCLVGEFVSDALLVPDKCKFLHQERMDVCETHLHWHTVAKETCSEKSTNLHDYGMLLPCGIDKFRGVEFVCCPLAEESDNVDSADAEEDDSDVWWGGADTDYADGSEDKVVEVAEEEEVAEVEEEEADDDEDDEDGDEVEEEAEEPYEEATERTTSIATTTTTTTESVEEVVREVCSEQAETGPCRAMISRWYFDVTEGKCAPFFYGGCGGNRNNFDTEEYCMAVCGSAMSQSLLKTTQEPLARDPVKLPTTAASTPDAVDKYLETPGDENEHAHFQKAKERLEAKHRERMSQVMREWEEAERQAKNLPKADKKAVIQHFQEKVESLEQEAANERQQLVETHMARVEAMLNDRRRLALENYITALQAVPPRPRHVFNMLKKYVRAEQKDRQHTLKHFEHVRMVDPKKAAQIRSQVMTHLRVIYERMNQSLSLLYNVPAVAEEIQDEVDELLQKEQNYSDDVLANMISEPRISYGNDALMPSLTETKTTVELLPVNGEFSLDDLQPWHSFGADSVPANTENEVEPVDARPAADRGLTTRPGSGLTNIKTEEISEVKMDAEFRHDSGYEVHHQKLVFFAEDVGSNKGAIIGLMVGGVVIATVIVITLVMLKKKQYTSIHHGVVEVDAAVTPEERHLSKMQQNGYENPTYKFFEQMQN

Substance: NIaΔ24 (24 amino acids removed from the C-terminus)
- activity to degrade amyloid β (Western blot): showed activity similar to normal NIa

Substance: NIaΔ28 (28 amino acids removed from the C-terminus)
- activity to degrade amyloid β (Western blot): showed significantly reduced activity

Substance: NIaΔ20 (20 amino acids removed from the C-terminus)
- activity to degrade amyloid β (Western blot): showed activity similar to normal NIa

Substance: TuMV-derived NIa protease
- protease activity; amount of amyloid β by Western blot (4G8): amyloid β disappeared after treatment with NIa and its fragment for 1 hour
